# Data taken from patent US20240076387A1 (published 2024).
# Changes are numbered by the printed parent chain. Values joined by “and” are separate entries in the source; they are usually repeats but may differ in a detail not shown here. Identical values can stand only once.
# B1: 21B3 (antibody, V domains shown)
# VH: ELQLVESGGGLVQPGGSLRLSCAASGFTFRDYSMSWVRQAPGKGLEWVSAISWNGDSTYYAESMKGRFTISRDNAKNTLYLQMNSLKSEDTAVYYCAKSWATPIESLYYYGMDYWGKGTLVTVSS
# VL: SYELTQSPSVSVALRQTAKITCGGNNIGSQTAQWYQQKPGQAPVLVIYANNRRPSGIPERFSGSKSGNTATLTISGAQAEDEADYYCQVWDGSTQAIVFGGGTHLTVL
# notes: also called 21B3 WT; antibody 21B3
# B2: 27H9 (antibody, human IgG1, lambda, V domains shown)
# VH: B1 VH with L2V, V5L, M64A, A75S, K87R, S88A, M112S, K117Q
# VL: SYELTQPLSVSVALRQTARITCGGNNIGSQTAQWYQQKPGQAPVLVIYANNRRPSGIPERFSGSKSGNTATLTISRAQAEDEADYYCQVWDESTQAIVFGGGTKLTVLG
# notes: also called 27H9 WT; 27H9 WT 23/07
# B3: 27H4 (antibody, human IgG1, lambda, V domains shown)
# VH: B1 VH with M64L, K87R, S88A, M112S, K117Q
# VL: B2 VL with R15G, D91E, E92D
# notes: also called 27H4 WT; antibody 27H4
# B4: 27H6 (antibody, human IgG1, lambda, V domains shown)
# VH: B1 VH with R30S, M34A, N54S, M64V, S71F, A75S, K87R, S88A, M112S, K117Q
# VL: B2 VL with T17A, R19K, E80G, E92G
# notes: also called 27H6 WT; antibody 27H6
# B5: 21B3 AAA (antibody, human IgG1, lambda, V domains shown)
# VH: B1 VH
# VL: B2 VL with P7S, L8P, R19K, R76G, E92G, K104H
# notes: AAA mutation in the Fc region
# B6: 27H9 NG/NA AAA (antibody, human IgG1, lambda)
# heavy: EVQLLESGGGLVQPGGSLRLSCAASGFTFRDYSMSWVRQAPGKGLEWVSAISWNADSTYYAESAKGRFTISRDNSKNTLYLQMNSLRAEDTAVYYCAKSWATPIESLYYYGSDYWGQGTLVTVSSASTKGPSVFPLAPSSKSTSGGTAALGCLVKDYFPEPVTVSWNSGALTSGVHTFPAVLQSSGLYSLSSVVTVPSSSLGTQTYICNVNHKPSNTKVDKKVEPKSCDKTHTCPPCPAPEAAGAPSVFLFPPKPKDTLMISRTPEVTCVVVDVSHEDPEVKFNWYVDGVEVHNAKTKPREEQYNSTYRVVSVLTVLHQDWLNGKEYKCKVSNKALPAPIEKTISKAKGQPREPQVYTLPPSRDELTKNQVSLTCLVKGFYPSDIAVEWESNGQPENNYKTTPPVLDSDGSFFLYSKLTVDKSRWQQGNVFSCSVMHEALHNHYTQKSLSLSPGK
# light: SYELTQPLSVSVALRQTARITCGGNNIGSQTAQWYQQKPGQAPVLVIYANNRRPSGIPERFSGSKSGNTATLTISRAQAEDEADYYCQVWDESTQAIVFGGGTKLTVLGQPKAAPSVTLFPPSSEELQANKATLVCLISDFYPGAVTVAWKADSSPVKAGVETTTPSKQSNNKYAASSYLSLTPEQWKSHRSYSCQVTHEGSTVEKTVAPTECS
# notes: also called 27H9_NA_+_AAA; 27H9 NA + AAA
# B7: 27H9 NG/NA (antibody, human IgG1, lambda)
# heavy: not shown
# light: B6 light
# B8: 27H9 NG/QG (antibody, human IgG1, lambda, V domains shown)
# VH: B1 VH with L2V, V5L, N54Q, M64A, A75S, K87R, S88A, M112S, K117Q
# VL: B2 VL
# B9: 27H9 Fab (Fab, V domains shown)
# VH: B1 VH with L2V, V5L, M64A, A75S, K87R, S88A, M112S, K117Q
# VL: B1 VL with S7P, P8L, K19R, G76R, G92E, H104K
# notes: also called 27H9_VH
# B10: 27H6 Fab (Fab, V domains shown)
# VH: B1 VH with R30S, M34A, N54S, M64V, S71F, A75S, K87R, S88A, M112S, K117Q
# VL: B1 VL with S7P, P8L, T17A, G76R, E80G, H104K
# notes: also called 27H6_VH
# B11: 27G9 Fab (Fab, V domains shown)
# VH: B1 VH with L2V, V5L, M34A, N54S, M64L, A75S, K87R, S88A, M112S
# VL: B1 VL with S7P, P8L, R15G, G76R, D91E, G92E
# notes: also called 27G9_VH
# B12: 27H4 Fab (Fab, V domains shown)
# VH: B1 VH with M64L, K87R, S88A, M112S, K117Q
# VL: B1 VL with S7P, P8L, R15G, K19R, G76R, D91E, G92D, H104K
# notes: also called 27H4_VH
# B13: 25F11 Fab (Fab, V domains shown)
# VH: B1 VH with L2V, V5L, M64A, A75S, K87R, S88A, M112S, K117Q
# VL: B1 VL with S7P, P8L, T17A, K19R, G76R, D91E, G92A, H104K
# notes: also called 25F11_VH
# B14: 25D4 Fab (Fab, V domains shown)
# VH: B1 VH with L2V, V5L, M34A, M64V, K87R, S88A, M112S, K117Q
# VL: B1 VL with S7P, P8L, R15G, K19R, D91A, G92A, H104K
# notes: also called 25D4_VH
# B15: 25G9 Fab (Fab, V domains shown)
# VH: B1 VH with L2V, V5L, S52T, N54S, M64V, A75S, K87R, S88A, M112T
# VL: B1 VL with S7P, P8L, T17A, K19R, G76R, G92D, H104K
# notes: also called 25G9_VH
# Target: T1, Flt-1 antigen (species not stated) (Homo sapiens (Human), UniProt P17948 27-656)
# T1 construct: also called sFlt-1; soluble Flt-1
# Assay: kinetics, method not stated (Table 7)
# T1 sequence (P17948 other isoform, or with tags, fused parts or gaps limits assumed, form in doubt): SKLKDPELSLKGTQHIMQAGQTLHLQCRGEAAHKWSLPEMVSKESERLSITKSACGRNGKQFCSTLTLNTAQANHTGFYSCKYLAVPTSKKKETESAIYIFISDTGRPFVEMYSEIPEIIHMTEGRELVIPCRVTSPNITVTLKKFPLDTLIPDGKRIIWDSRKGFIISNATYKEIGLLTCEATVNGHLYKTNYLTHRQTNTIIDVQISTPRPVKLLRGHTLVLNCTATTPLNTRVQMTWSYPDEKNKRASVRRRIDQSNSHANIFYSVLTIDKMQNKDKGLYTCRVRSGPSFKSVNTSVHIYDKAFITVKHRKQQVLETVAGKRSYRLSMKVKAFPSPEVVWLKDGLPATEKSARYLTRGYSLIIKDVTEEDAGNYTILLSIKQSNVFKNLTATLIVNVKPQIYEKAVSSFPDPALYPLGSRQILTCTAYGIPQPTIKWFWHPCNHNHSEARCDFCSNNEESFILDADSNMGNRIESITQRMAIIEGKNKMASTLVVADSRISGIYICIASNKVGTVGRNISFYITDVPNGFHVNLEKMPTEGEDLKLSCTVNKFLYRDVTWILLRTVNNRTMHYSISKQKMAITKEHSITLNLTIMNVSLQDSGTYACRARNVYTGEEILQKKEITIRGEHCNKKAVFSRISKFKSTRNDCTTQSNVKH
Binder,Kd [nM],koff [s⁻¹],kon [M⁻¹ s⁻¹]
B1,0.0848,4.73e-05,558000

# Target: T1, Flt-1 antigen (species not stated at …)
# Assay: Biacore
Binder,Kd [nM],koff [s⁻¹],kon [M⁻¹ s⁻¹]
B2,0.26,8.4e-05,330000
B1,0.32,0.00017,540000
B3,0.25,8.2e-05,340000
B4,0.16,0.00014,910000

# Target: T1, Flt-1 antigen (species not stated at …)
# Assay: surface plasmon resonance (Biacore), EXP 2
Binder,Kd [nM],koff [s⁻¹],kon [M⁻¹ s⁻¹]
B5,0.21,0.00011,520000
B1,0.32,0.00017,540000
B6,0.51,0.00015,290000
B7,0.51,0.00015,290000

# Target: T1, Flt-1 antigen (species not stated at …)
# Assay: surface plasmon resonance (Biacore), EXP 1
Binder,Kd,koff,kon
B2,0.23 nM and 0.26 nM,7.9e-05 s⁻¹ and 8.4e-05 s⁻¹,350000 M⁻¹ s⁻¹ and 330000 M⁻¹ s⁻¹
B8,0.36 nM,0.00013 s⁻¹,370000 M⁻¹ s⁻¹
B7,0.39 nM,0.00011 s⁻¹,290000 M⁻¹ s⁻¹

# Target: T1, Flt-1 antigen (species not stated at …)
# Assay: kinetics of Table 7; 'increased' is said of a higher affinity (lower KD)
row,Binder,fold change of KD against parent antibody 13B4 [fold]
1,B1,~5

# Target: T1, Flt-1 antigen (species not stated at …)
# Assay: surface plasmon resonance (Biacore); reference not named
row,Binder,fold reduced binding affinity [fold]
1,B6,~2

# Target: T1, Flt-1 antigen (species not stated at …)
# Assay: off-rate of Fabs, method not stated
row,Binder,kd IMPROVEMENT (against parent 21B3)
1,B9,1.12
2,B10,0.96
3,B11,1.3
4,B12,1.06
5,B13,1
6,B14,0.94
7,B15,0.97
